The data set in a line: soluble on expression in E. coli; label from the status in PepcDB or PDB records.
“MNYGNNGGGQWQPRGNNNWRPQGRGRGGGGWKGNDNRGGYRGGSSNDGGWSNFRDDGNLNFASPYQANRGNFRGNYRGGGGGGGGNQNNYGNRGRGRGGFDRGRGGGGGGNKNFGPIDANKCIIPSMWNNPWDALEKEYEQEYGVAITEKVTDPSPSPSSAEETTA”: the “soluble on expression in E. coli” value is “not soluble”. The result for “MSLTADTSLSSIQEAINVVQQYNATDPVRLKLFHTPRMVSQGAHFAFCLPTKKPHYKPLLLSQNALDEFNLVQDQDLEKILSGEKVYYSDSIFPYSTVYSGFQFGSFAAQLGDGRVVNLFDLKDKCSGQWQTFQLKGAGMTPFSRFADGKAVLRSSIREFIMSEALHSIGIPSTRAMQLTLLPGTKAQRRNQEPCAVVCRFAPSWIRLGNFNLFRWRHDLKGLIQLSDYCIEELFAGGTQFEGKPDFNIFKRDFFPDTETKIDEQVEKDETEVSTMTGDNISTLSKYDEFFRHVVSLNANTVAHWQAYGFANGVLNTDNTSIMGLTIDYGPFAFLDKFEPSFTPNHDDTAKRYSFANQPSIIWWNLQQFAKDLACLLGPEARDLELLLKGELNSVDDALEKTMIERVQKLVELSANEYKYVFTTRYAQIMSQRLGVDLDLEKCMSSTNLKDIEHAAEKAKEFCDVIVEPLLDILQATKVDYNNFFIHLQNYKGPFFIKDKSDTATLFGAFDEEYLGMFFNSKQLQQMAETEEAFAAGEKVFDANGELRLLNEKLQEIRNWTQDYLTLVPPTETAARASLAKKANPLFVPRSWVLEEVVDDLMYSQRDGLQDPSSELDTSALKKLYLMSVNPYDRTKWDVTLRPELETKWADLSHQDDAKFMMQASCSSEGHHHHHH” reads “soluble”; that for “MSLRSIPSALQAKLDSGATTLARCWIVTRRDGVVMGFTDHDRDLTIGGVLCRAATGFTASEATSRFDLAVDGGEISGAFSDDSLSEADLAAGRYDAAGVATWLVDWSDVSLRIMIARGTIGEVRREGAAFTAELRGLADALAQDSGRLFTARCGVDLGDGKCRVDLASSAFRRSGTVTAVEGTSIVAVSGMSGLAAGWFTAGRLNWTGGANAGLAIEVKQHRVVAGVVRLSLWRAMAEPIAIGDSFVVTAGCDKSFTTCRDRFANTSNFRGFPQIPGNDFVVSYPLPGSPDNGNGSKALEGHHHHHH”, “soluble”; that for “GLESFSLTSHEKKFGVNIEFSDVNFSYPKQTNHRTLKSINFFIPSGTTCALVGHTGSGKSTIAKLLYRFYDAEGDIKIGGKNVNKYNRNSIRSIIGIVPQDTILFNETIKYNILYGKLDATDEEVIKATKSAQLYDFIEALPKKWDTIVGNKGMKLSGGERQRIAIARCLLKDPKIVIFDEATSSLDSKTEYLFQKAVEDLRKNRTLIIIAHRLSTISSAESIILLNKGKIVEKGTHKDLLKLNGEYAEMWNMQSGGNDI”, “soluble”. The result for “MGRTTTPRDGDAALPPEYHGLHVAPVQPGHEAIEWLTPTNRSDRVRVVQHTCECRTTIYELCRSGGLMFIRRTVRTAKGARVHETERLITARMERLWMRLLLGQAR” reads “not soluble”; that for “MSLSRPLLFALTALSLTAASLAHAADKKAADKPAPSAVSKADKALHDKFLTLDTHLDTPAHFGRPGWDIADHHEVEHDFSQVDLPRMNQGGLDGGFFVVYIGQGELTEKGYTYARDYALHRTIEIREMLAANPDTFEMALTSDDARRIAKAGKKFAFVSMENSWPVGEDLSLVETFYKEGLRMAGPVHFRNNQLADSSTDPKGKIWNGYSPLGLRWLAEANRLGIVIDVSHASDDVVDQSVALSKAPIIASHSGPKAVYDHPRNLDDARLKKIADAGGAICINSIYLTDTTPSPERKAALEALGRAPDMKTATPEAVKAYADKRAAIDKAHPAARGDFDLYMKSMLHVLKVAGPKGVCVGADWDGGGGMDGFEDITDLPKITARLKAEGYSDADIEAIWSGNVLRIVDAAQAYAKSVTKEGHHHHHH”, “soluble”. Consider “MSLSISFKDVPAGHWSYKAILDLASKNIVTGYGNGIFGFGDDVTREQVARLMYLQLKPESQENYNNPYNDINDHSTSFKREILALTEMGIFAGDEKGNFRPKASLTREEMAQVLTNAYKLVAKSEHTFVDVDRKSWSNKAISAVQSNRIAAGTGDNMFSPKMNVTREQYVQFLYNATLPYEERPGANQEPKRFANCKEANDAGYYDITRDSPYYGKHLDRDGDGIACERNKSSKEGHHHHHH”, for which the “soluble on expression in E. coli” value is “not soluble”. “MSEMNAVYNVKQYILNLIMQNKLEYGDQLPSNLSIARELNVKTDDVYEAIQALITEQVIKDNFEEGTSVKSLPPFFYPLNELISIGQMIKNAGFECGTEYLNFDEQPATMLDANLLSVEEGYPVTIIERLRTADGEPVVYCLDKIAKKELTCTEYQMSNGSILSAIKEQSNHNICYADTEIEAVNYEPRISEVLNASPHEGLILLKITHYNELDEPILYSLNYMKNSLVQFKITRKI”: the “soluble on expression in E. coli” value is given as “not soluble”.

Turning to “MGSDKIHHHHHHMDSGMNEKTTAELEHLRGLIDGVDQQLLHLLRKRLDLVAQVGTVKHGAGLPIYAPQREAAMLAKRREEAKNMGIAPQLIEDILRRLMRESYLNEKDVGFKQVKKDLGSVVIVGGKGQLGGLFSQMLTLSGYQVNLLDKDDWQQADSLFADAGMVLVTVPIAITCELIREKLTQLPADCILADLTSIKTEPVKAMLEAHSGPVVGFHPMFGPDVGSLAKQVVVVCHGRSPEKYQWLLEQIAIWGARIVEAEPERHDSAMQLVQAMRHFSTFVYGLNLCKEEADIDTLLQFSSPIYRLELAMVGRLFAQSPELYADIIFAQQDSQHAIGDYLDNYREALELLKRGDRNEFIKQFQSVAKWFGDFAPQFQRESRIMLQSVNDMKTN”, the “soluble on expression in E. coli” value is reported as “not soluble”. In the case of “SMATPNQTACNAESPVALEEAKTSGAPGSPQTPPERHDSGGSLPLTPRMESHSEDEDLAGAVGGLGWNSRSPRTQSPGGCSAEAVLARKKHRRRPSKRKRHWRPYLELSWAEKQQRDERQSQRASRVREEMFAKGQPVAPYNTTQFLMNDRDPEEPNLDVPHGISHPGSSGESEAGDSDGRGRAHGEFQRKDFSETYERFHTESLQGRSKQELVRDYLELEKRLSQAEEETRRLQQLQACTGQQSCRQVEELAAEVQRLRTENQRLRQENQMWNREGCRCDEEPGT”, the “soluble on expression in E. coli” value is on record as “soluble”. Under “SLFHLLGAQQNQKLKRRRFFCPVCGGELAVKLGLQKAPHFAHKQNKSCAIDIEPESAYHLEGKRQLYVWLKTQRASPILEPYIRTINQRPDVMARIKEHMLAVEYQCATIAPDVFQKRTEGFKQEGIIPQWIMGYSRLKRTASSFYQLSTFHWQFINASPYRELICYCPERRSFLRLSHIIPFYTNHSYSSVQTIPIHRAGAGDLFFTEPKPSIQYSGWTKAIHRFRHKPHRFNSKETNRLRLLFYEKRQTPFSFLPTEVFVPVRKGAVFKSPVFVWQGFLYLFMTDLGGKRAPIRFSAVLQQCKLHIHNKNIALRSECSEECLSEAVKQYIDFLCKKGFLRETQKEVYVLNQPAGGIHSMQDLIERDRSCFIE” stands “soluble”; under “MGSDKIHHHHHHLELSSHFTPEKIQVGISSCLLGQKVRFDGGHKNSYYCDVTLREHVEFVPVCPEMSIGLGAPRKSIRQVRDGDTLLIQSGDGSLDVTDKLNTFSQQKVAELDFLGGYILCAKSPTCGMERVTEYKIGTNNGSKAGVGVFAKVLMETYPHLPVEEEGRLNDLVLRENFITRLYAYHDWFSMLASGLTKHKLIQFHSRYKYLIMAHSPKWYRALGPILADIQDLSASADAYFDGFMTALKIKATRKNHTSTLQHIQGYFKKHLSAGQKQELSESIDKYRQGLLPLLVPITLINHYLREFPTPYIESQVYLNPHPEELKLRYAY”, “not soluble”; under “MTDNSKIRVVVGMSGGVDSSVTALLLKEQGYDVIGVFMKNWDDTDEFGVCTATEDYKDVAAVADKIGIPYYSVNFEKEYWDRVFEYFLAEYRAGRTPNPDVMCNKEIKFKAFLDYAMTLGADYVATGHYAQVKRDENGTVHMLRGADNGKDQTYFLSQLSQEQLQKTLFPLGHLQKSEVREIAERAGLATAKKKDSTGICFIGEKNFKQFLSQYLPAQKGRMMTIDGRDMGEHAGLMYYTIGQRGGLGIGGQHGGDNQPWFVVGKDLSQNILYVGQGFYHEALMSNSLDASVIHFTREMPEEFTFECTAKFRYRQPDSHVAVHVRGDKAEVVFAEPQRAITPGQAVVFYDGKECLGGGMIDMAYKNGQPCQYI”, “not soluble”. “MKELETRIIDIDVEKLRETLNKLGAKNVKRENQTNDIFDFPDRKLLDKKGYARIRTVEDLINNKTVYFMTTKKMLSQDKFKVMEENETIIEDGAMGKNIFKSLGLELFETIKKYRESYKYKDSLIEIDINDPSFCPFPYIEIETSSEEKLNEILIDLGYSMEDTTSKTIYEILKDKGISPDSNKKGLLEHHHHHH”: the “soluble on expression in E. coli” value is listed as “soluble”.

For the sequence “MGSDKIHHHHHHMNKKIIEKEILSKVIKKRKEGSNKTNYGRILLICGSQSFGGAAIMASKAVVYSGAGLVTLASDMINRAPFLSSVSEAMFLDYTRTDKLINSIAKSDVILIGSGLEDSDFSFSLLKLVFQNAKTNQLLVLDGTALSMIGKRNLNIPKKPTIIMTPHQGEWQRVSGLSISEQVPVQNYKKMVDLNIDFLVLKSSATEIYALQNPREYKELNIGGPFQAIGGMGDTLAGLIAGFLGQFKNDQISVIQAATYLHSYIARNLSQKQYVTLPTRISEQIPTEMKKIIQTSKY”, the “soluble on expression in E. coli” value is given as “not soluble”. The result for “MSLGITRVVLADDHAVVRAGLRTALAALPDCEVVSEAATGPQLLAVLAQHHPDLLVVDVAMPDFDPIATIRQIHADYPAMKILVVSAYDDQSYVVGLLAAGVNGYHLKDQPLSDLQLAVQRIMAGGNWISSPLLSRLIQAAPQIAHSSPITLTKRQRDLLRLIAQGYDNRRMAQEMDLSIKTIENHLTALYRTIRVSSRLEAYQFALRHPELLAESGHEAALSREPSTSPAPLMVMIIDDNERYRAQLKRMIGKACAESQIYEAEDCHEATRLLRQITPDLVFVDVILQDGDGIQCLRRLKSVSPHTRVILISAYPDREFRRLGLEAGALAFLDKKDLDAATVRQVVEDTLRREGHHHHHH” reads “soluble”.

“MDERDVLWVGVCAMPKKVESEPMQRILAALTSSRVAHFEPMIFDAKTLFERPIHKWPVCDALIAFHSEGFPLERAIAYAELRRPYCLNGLREQRMLLDRSKVYEVLARERVPVPRHIVVRHDGADVGRTDTRFVEHDDYIEYCGERLFKPFVEKPIDAEDHRVCIYYARPLYGRRRLFRKTANQSSVFEPGWRRVRREGAFIYEEFIPSEHQSDIKVYAVGPEYAYAERRKSPVVDGIVERNAHGKELRFPVELSTAERCVAATITAAFRQFVCGFDLIRHADGNAFYVNDVNGFSFVKGSQSYYESCGRILAEHLARECARSAAVDGE”: the “soluble on expression in E. coli” value is on record as “not soluble”. “MAHHHHHHMITDLLFKSQIIYNKKDILCARYILFYQHICKRGYKEAAPKVFNKKSSHTSRWIQRQISDRYVLRAKNDNYRSRAAYKLIELDNKYLFLKKNKIILDIGCYPGSWCQVILERTKNYKNKIIGIDKKIMDPIPNVYFIQGEIGKDNMNNIKNINYIDNMNNNSVDYKLKEILQDKKIDIILSDAAVPCIGNKIDDHLNSCELTLSITHFMEQYINIGGTYIVKMYLGSQTNNLKTYLKGMFQLVHTTKPKASRNESREIYLVCKNFLGRKKITEDVQIKGSFSSKEGYY”: the “soluble on expression in E. coli” value is “not soluble”. Consider “MSLARQNYHDEVEAAVNKQINVELYASYVYLSMSAHFDRDDIALRNIAKFFKEQSDEERGHATELMRIQAVRGGRVAMQNIQKPEKDEWGTVLEAFEAALALERANNASLLKLHGIAEQRNDAHLTNYIQEKYLEEQVHSINEFARHIANIKRAGPGLGEYLFDKEEFSD”, for which the “soluble on expression in E. coli” value was “not soluble”. As to “MIPMFKKKPLIGMVHLKPLPGSYHYNDNFDDIVDFAIKEAKKLEEAGFDAVMIENFGDAPFKKEADKITIASMAVIAKAIKEEVSLPLGINILRNDAIGAYSIAYVVKADFIRVNVLSGVAFTDQGIIEGKAYELAKLKKLLPSKIKVFADVHVKHAYHFIDFESSLLDTVERGLADAVIISGKRTGKEVDIEKLKLAKELVDVPVIVGSGTNYNNLRILWSYADGFIIGTWIKKDGKANNEIDIDRAKKIVNLANKLKMCLEHHHHHH”, the “soluble on expression in E. coli” value was “soluble”.
